Laboratory results reported in publication PMC3925188 (Biochimica et biophysica acta, 2013).

Molecular target: T1, Cyp33 RRM domain (1–83) (UniProt Q9UNP9 1-83)
T1 sequence (looked up): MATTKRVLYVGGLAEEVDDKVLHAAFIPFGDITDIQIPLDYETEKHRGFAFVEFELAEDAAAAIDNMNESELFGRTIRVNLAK
Test: NMR titration

- binding result: binds
B1: KMT2A PHD3 finger (1565–1627) (domain or fragment, UniProt Q03164 1565-1627, looked up)
chain: KGNFCPLCDKCYDDDDYESKMMQCGKCDRWVHSKCENLSDEMYEILSNLPESVAYTCVNCTER
